Experimental data published in patent publication US20130316941A1 (Boehringer Ingelheim, published 2013).

Key:
[1] = biological target: human glucagon receptor (Glucagon-R) (human, UniProt P47871 26-477); experiment: cell-based or functional assay
[2] = biological target: human glucagon-like peptide 1 receptor (GLP-1R) (human, UniProt P43220 24-463); experiment: cell-based or functional assay

Chain of human glucagon receptor (Glucagon-R) (P47871 26-477): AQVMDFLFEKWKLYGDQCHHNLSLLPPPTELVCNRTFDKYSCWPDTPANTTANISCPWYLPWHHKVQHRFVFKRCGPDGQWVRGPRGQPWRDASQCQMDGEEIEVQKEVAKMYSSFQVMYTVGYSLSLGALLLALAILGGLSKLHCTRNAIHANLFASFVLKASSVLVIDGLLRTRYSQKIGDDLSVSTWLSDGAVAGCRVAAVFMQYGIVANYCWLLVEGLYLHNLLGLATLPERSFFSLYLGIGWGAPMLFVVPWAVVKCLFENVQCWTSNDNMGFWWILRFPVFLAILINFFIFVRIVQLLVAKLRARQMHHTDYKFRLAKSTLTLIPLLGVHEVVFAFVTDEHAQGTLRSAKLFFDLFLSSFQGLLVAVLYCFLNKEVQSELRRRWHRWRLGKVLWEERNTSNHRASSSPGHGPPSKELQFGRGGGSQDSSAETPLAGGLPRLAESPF

B1: H-HSQGTFTSDYSRYLDE-K(Hexadecanoyl-isoGlu)-RARDFIEWLLSA-NH2 [Compound 7] (peptide)
peptide: HSQGTFTSDYSRYLDEKRARDFIEWLLSA
HELM: PEPTIDE1{H.S.Q.G.T.F.T.S.D.Y.S.R.Y.L.D.E.K.R.A.R.D.F.I.E.W.L.L.S.A.[am]}|PEPTIDE2{[CCCCCCCCCCCCCCCC(=O)[*:2]].[gGlu]}$PEPTIDE1,PEPTIDE2,17:R3-2:R2$$$V2.0
SMILES: CCCCCCCCCCCCCCCC(=O)N[C@@H](CCC(=O)NCCCC[C@H](NC(=O)[C@H](CCC(=O)O)NC(=O)[C@H](CC(=O)O)NC(=O)[C@H](CC(C)C)NC(=O)[C@H](Cc1ccc(O)cc1)NC(=O)[C@H](CCCNC(=N)N)NC(=O)[C@H](CO)NC(=O)[C@H](Cc1ccc(O)cc1)NC(=O)[C@H](CC(=O)O)NC(=O)[C@H](CO)NC(=O)[C@@H](NC(=O)[C@H](Cc1ccccc1)NC(=O)[C@@H](NC(=O)CNC(=O)[C@H](CCC(N)=O)NC(=O)[C@H](CO)NC(=O)[C@@H](N)Cc1c[nH]cn1)[C@@H](C)O)[C@@H](C)O)C(=O)N[C@@H](CCCNC(=N)N)C(=O)N[C@@H](C)C(=O)N[C@@H](CCCNC(=N)N)C(=O)N[C@@H](CC(=O)O)C(=O)N[C@@H](Cc1ccccc1)C(=O)N[C@H](C(=O)N[C@@H](CCC(=O)O)C(=O)N[C@@H](Cc1c[nH]c2ccccc12)C(=O)N[C@@H](CC(C)C)C(=O)N[C@@H](CC(C)C)C(=O)N[C@@H](CO)C(=O)N[C@@H](C)C(N)=O)[C@@H](C)CC)C(=O)O
- EC50 values for cAMP generation in HEK293 cells expressing Glucagon receptor [1]: 0.06 nM
- EC50 values for cAMP generation in HEK293 cells expressing GLP-1 receptor [2]: 0.06 nM
